# US20240294895A1, “ENZYMATIC COMPOSITIONS FOR CARBOHYDRATE ANTIGEN CLEAVAGE ON DONOR ORGANS, METHODS AND USES ASSOCIATED THEREWITH” (THE UNIVERSITY OF BRITISH COLUMBIA, priority 2018, published 2024)
# T1: Flavonifractor plautii Galactosaminidase (FpGalNase), full length, SEQ ID NO: 7, 9, 10 (Flavonifractor plautii, UniProt P0DTR5)
# T1 sequence (P0DTR5 with tags, fused parts or gaps): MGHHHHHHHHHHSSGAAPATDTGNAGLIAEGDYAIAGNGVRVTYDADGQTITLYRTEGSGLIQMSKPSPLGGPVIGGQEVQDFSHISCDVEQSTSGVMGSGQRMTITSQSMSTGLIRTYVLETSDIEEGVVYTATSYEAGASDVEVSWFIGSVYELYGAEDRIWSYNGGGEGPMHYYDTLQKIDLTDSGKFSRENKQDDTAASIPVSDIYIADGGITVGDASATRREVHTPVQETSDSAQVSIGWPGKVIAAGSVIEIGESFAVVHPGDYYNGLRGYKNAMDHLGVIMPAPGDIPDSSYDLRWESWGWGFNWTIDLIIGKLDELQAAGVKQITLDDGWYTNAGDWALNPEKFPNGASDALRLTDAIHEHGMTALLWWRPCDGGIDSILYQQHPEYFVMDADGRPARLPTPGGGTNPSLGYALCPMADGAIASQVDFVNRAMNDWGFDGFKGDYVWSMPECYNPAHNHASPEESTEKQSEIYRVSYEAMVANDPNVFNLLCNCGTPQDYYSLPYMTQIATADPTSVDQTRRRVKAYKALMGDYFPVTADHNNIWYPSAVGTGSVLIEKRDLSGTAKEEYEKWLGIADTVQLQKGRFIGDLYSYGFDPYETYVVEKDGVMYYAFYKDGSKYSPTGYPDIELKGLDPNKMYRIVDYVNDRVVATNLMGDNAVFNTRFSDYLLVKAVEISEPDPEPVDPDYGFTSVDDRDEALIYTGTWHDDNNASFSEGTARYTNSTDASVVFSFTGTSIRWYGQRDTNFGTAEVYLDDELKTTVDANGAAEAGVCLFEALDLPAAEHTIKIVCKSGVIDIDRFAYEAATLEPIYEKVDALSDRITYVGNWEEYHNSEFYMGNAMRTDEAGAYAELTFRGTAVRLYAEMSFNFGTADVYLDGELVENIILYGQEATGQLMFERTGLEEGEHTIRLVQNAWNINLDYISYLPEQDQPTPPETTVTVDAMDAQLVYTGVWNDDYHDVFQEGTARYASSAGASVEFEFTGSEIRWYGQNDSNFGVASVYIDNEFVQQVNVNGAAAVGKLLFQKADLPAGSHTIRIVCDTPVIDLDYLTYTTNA
# B1: Flavonifractor plautii Galactosaminidase (FpGalNase), full length, SEQ ID NO: 7, 9, 10 (Flavonifractor plautii) (protein)
# chain: T1 sequence (P0DTR5 with tags, fused parts or gaps)
# Experiments:
# [1] = molecular target: T1, Flavonifractor plautii Galactosaminidase (FpGalNase), full length, SEQ ID NO: 7, 9, 10; test: Kinetic parameters of FpGalNase full length (MU or pNP release); assay type: biochemical; settings: versus corresponding GalN-antigen
# Procedure: (§1) All kinetic assays utilizing 4-methylumbelliferone as leaving group were performed through measurement of fluorescence. To avoid measurement errors based on the inner filter effect (Palmier 2007) standard curves were used to validate the linear range of the fluorophore.
# (§2) Michaelis-Menten parameter was determined for GalN antigen subtype 1penta-MU and A antigen subtype 1penta-MU in 100 mM NaH2PO4, pH 7.4 at 37° C. Reaction was performed in 100 μl with 3.4 nM FpGalactosaminidase (5.31 nM FpGalNase_truncA) and 0.1 mg/mL SpHex, AfcA, 0.2 mg/mL BgaC and varying concentrations of substrate (5 μM-2 mM). The reactions were run as a series of four with controls (no FpGalactosaminidase) as duplicates. The fluorescence signal (365/435 nm) resulting from MU release by hydrolysis was monitored by Synergy H1™ plate reader [BioTek™] and converted to concentration using MU standard concentration curves determined under identical reaction conditions. Initial rates (μM/s) were determined and plotted in Grafit 7.0™ to determine the kinetic parameters.
# kcat/KM parameter was determined for GalN antigen subtype 1/2/4tetra-MU and B antigen subtype 1tetra-MU at pH 7.4 and 37° C. […] Initial rates (μM/s) were determined and plotted in Grafit 7.0™ to determine the kcat/KM (s^−1*mM^−1) parameters. […]
# [2] = molecular target: Flavonifractor plautii GalNAcDeacetylase (FpGalNAcDeAc), SEQ ID NO: 2, 4, 5 (Flavonifractor plautii, UniProt P0DTR4); settings: 100 μM EDTA; 50 μM A antigen subtype 1penta-MU, pH 7.4, 37° C.
# Procedure: FpGalNAcDeacetylase was tested against different potential inhibitors in 96-well plate format as a coupled assay. Reaction was performed in 100 μL scale at 37° C. with 50 μM A antigen subtype 1penta-MU and 5 μg/mL FpGalNAcDeacetylase in 100 mM NaH2PO4 PH 7.4 with 10 μg/mL FpGalactosaminidase, 50 μg/mL SpHex, 50 μg/mL AfcA, 50 μg/mL BgaC. As inhibitors EDTA (1, 10, 100 μM), Marimastat (1, 10, 100, 1000 μM), DMSO (2%, 4%), Protease Inhibitor Cocktail EDTA-free (Pierce™) (1×, 2× and 4×) were tested. The Fluorescence (365/435 nm) was monitored continuously for 1 hours using a Synergy H1™ plate reader (BioTek™).
# [3] = substrate: CC(=O)N[C@H]1[C@H](Oc2ccc3c(C)cc(=O)oc3c2)O[C@H](CO)[C@@H](O[C@@H]2O[C@H](CO)[C@H](O)[C@H](O[C@H]3O[C@H](CO)[C@H](O)[C@H](O)[C@H]3N)[C@H]2O[C@@H]2O[C@@H](C)[C@@H](O)[C@@H](O)[C@@H]2O)[C@@H]1O; test: Kinetic parameters of FpGalNase full length (MU or pNP release); assay type: biochemical, Flavonifractor plautii; settings: other: 100 mM NaH2PO4, pH 7.4, 37° C.
# Procedure: as §1, §2
# (§3) kcat/KM parameter was determined for GalN antigen subtype 1/2/4tetra-MU and B antigen subtype 1tetra-MU at pH 7.4 and 37° C. Reactions (total volume of 100 μL) were performed in black 96-plate wells and as coupled assays in 100 mM NaH2 PO4 (pH 7.4) with 8.63 nM FpGalactosaminidase, 0.1 mg/mL SpHex, BgaC (BgaA for Subtype 2), AfcA, varying concentrations of substrate (25 μM, 20 μM, 15 μM, 10 μM, 7.5 μM, 5 μM). The reactions were run as a series of four with controls (no FpGalactosaminidase) as duplicates. The fluorescence signal (365/435 nm) resulting from MU release by hydrolysis was monitored by Synergy H1™ plate reader [BioTek™] and converted to concentration using MU standard concentration curves determined under identical reaction conditions. Initial rates (μM/s) were determined and plotted in Grafit 7.0™ to determine the kcat/KM (s^−1*mM^−1) parameters.
# (§4) Michaelis-Menten parameters were determined for GalN-α-pNP in clear 96-plate at 37° C. with 863.2 nM FpGalactosaminidase (in 100 mM NaH2PO4, pH 7.4) or 369.9 nM FpGH4 (in 50 mM Tris/HCl, pH 7.4, 100 μM NAD^+, 1 mM MnCl2) with varying concentrations of substrate (10 μM-5 mM) in a volume of 100 μl. The reactions were run as a series of three with two controls (no enzyme). The absorption (at 405 nm) resulting from pNP release by hydrolysis was monitored by Synergy H1™ plate reader [BioTek™] and converted to concentration using p-nitrophenol standard concentration curves determined under identical reaction conditions. Initial rates (μM/s) were determined and plotted in Grafit 7.0™ to determine the kinetic parameters.
# [4] = substrate: CC(=O)N[C@H]1[C@H](Oc2ccc3c(C)cc(=O)oc3c2)O[C@H](CO)[C@@H](O)[C@@H]1O[C@@H]1O[C@H](CO)[C@H](O)[C@H](O[C@H]2O[C@H](CO)[C@H](O)[C@H](O)[C@H]2O)[C@H]1O[C@@H]1O[C@@H](C)[C@@H](O)[C@@H](O)[C@@H]1O; test: as above; assay type: biochemical, Flavonifractor plautii; settings: other: 100 mM NaH2PO4, pH 7.4, 37° C.
# Procedure: as §1, §2, §3, §4
# [5] = substrate: CC(=O)N[C@H]1[C@H](O[C@H]2[C@@H](O)[C@@H](CO)O[C@@H](Oc3ccc4c(C)cc(=O)oc4c3)[C@@H]2O)O[C@H](CO)[C@@H](O)[C@@H]1O[C@@H]1O[C@H](CO)[C@H](O)[C@H](O[C@H]2O[C@H](CO)[C@H](O)[C@H](O)[C@H]2N)[C@H]1O[C@@H]1O[C@@H](C)[C@@H](O)[C@@H](O)[C@@H]1O; test: as above; assay type: biochemical, Flavonifractor plautii; settings: other: 100 mM NaH2PO4, pH 7.4, 37° C.
# Procedure: as §1, §2, §3, §4
# [6] = substrate: CC(=O)N[C@H]1[C@H](Oc2ccc3c(C)cc(=O)oc3c2)O[C@H](CO)[C@H](O)[C@@H]1O[C@@H]1O[C@H](CO)[C@H](O)[C@H](O[C@H]2O[C@H](CO)[C@H](O)[C@H](O)[C@H]2N)[C@H]1O[C@@H]1O[C@@H](C)[C@@H](O)[C@@H](O)[C@@H]1O; test: as above; assay type: biochemical, Flavonifractor plautii; settings: other: 100 mM NaH2PO4, pH 7.4, 37° C.
# Procedure: as §1, §2, §3, §4
# [7] = substrate: N[C@H]1[C@@H](Oc2ccc([N+](=O)[O-])cc2)O[C@H](CO)[C@H](O)[C@@H]1O; test: as above; assay type: biochemical, Flavonifractor plautii; settings: other: 100 mM NaH2PO4, pH 7.4, 37° C.
# Procedure: as §1, §2, §3, §4
# [8] = substrate: CC(=O)N[C@H]1[C@H](Oc2ccc3c(C)cc(=O)oc3c2)O[C@H](CO)[C@@H](O)[C@@H]1O[C@@H]1O[C@H](CO)[C@H](O)[C@H](O[C@H]2O[C@H](CO)[C@H](O)[C@H](O)[C@H]2N)[C@H]1O[C@@H]1O[C@@H](C)[C@@H](O)[C@@H](O)[C@@H]1O; test: as above; assay type: biochemical, Flavonifractor plautii; settings: other: 100 mM NaH2PO4, pH 7.4, 37° C.
# Procedure: as §1, §2, §3, §4
# Flavonifractor plautii GalNAcDeacetylase (FpGalNAcDeAc), SEQ ID NO: 2, 4, 5, sequence (P0DTR4 13-772, looked up, natural form): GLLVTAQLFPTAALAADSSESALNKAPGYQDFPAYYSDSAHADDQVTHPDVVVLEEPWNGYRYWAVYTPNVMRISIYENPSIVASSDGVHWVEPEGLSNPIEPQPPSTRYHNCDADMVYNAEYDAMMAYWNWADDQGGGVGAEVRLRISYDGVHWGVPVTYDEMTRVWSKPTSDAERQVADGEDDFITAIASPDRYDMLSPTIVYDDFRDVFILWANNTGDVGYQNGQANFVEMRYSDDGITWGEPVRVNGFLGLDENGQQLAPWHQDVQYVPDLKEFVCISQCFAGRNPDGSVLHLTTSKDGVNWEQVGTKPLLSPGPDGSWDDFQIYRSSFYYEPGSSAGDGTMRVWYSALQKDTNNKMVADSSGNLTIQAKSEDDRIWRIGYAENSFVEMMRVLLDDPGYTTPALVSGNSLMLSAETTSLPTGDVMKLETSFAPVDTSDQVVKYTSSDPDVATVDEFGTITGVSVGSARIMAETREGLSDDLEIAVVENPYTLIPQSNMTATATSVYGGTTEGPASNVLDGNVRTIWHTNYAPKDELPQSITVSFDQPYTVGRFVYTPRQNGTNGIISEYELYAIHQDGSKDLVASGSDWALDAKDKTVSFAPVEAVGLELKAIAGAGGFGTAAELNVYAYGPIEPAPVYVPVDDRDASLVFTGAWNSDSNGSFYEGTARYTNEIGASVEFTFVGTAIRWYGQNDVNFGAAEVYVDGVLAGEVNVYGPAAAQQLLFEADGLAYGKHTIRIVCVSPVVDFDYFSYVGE
molecule,measurement,setting,value
CC(=O)N[C@H]1[C@H](Oc2ccc3c(C)cc(=O)oc3c2)O[C@H](CO)[C@@H](O)[C@@H]1O[C@@H]1O[C@H](CO)[C@H](O)[C@H](O[C@H]2O[C@H](CO)[C@H](O)[C@H](O)[C@H]2O)[C@H]1O[C@@H]1O[C@@H](C)[C@@H](O)[C@@H](O)[C@@H]1O [B antigen Type1tetra-MU],"kcat/KM for cleavage of B-antigen, times lower than for the corresponding GalN-antigen",[1],over 2000 times lower
O=C(O)CN(CCN(CC(=O)O)CC(=O)O)CC(=O)O [EDTA],effect of treatment on enzyme activity,[2],largely obliterated the enzyme activity
B1,kcat/Km,[3],47270 ± 7490 M⁻¹ s⁻¹
same,kcat/Km,[4],20 M⁻¹ s⁻¹
same,Km,[5],64.5 ± 7.6 µM
same,kcat,[5],2.35 s⁻¹
same,kcat/Km,[5],36480 M⁻¹ s⁻¹
same,kcat/Km,[6],30050 ± 2330 M⁻¹ s⁻¹
same,Km,[7],700 ± 151 µM
same,kcat,[7],0.029 s⁻¹
same,kcat/Km,[7],40 M⁻¹ s⁻¹
same,kcat/Km,[8],45700 ± 3570 M⁻¹ s⁻¹
